Here are results for eight molecules from paper doi:10.1101/557116 (bioRxiv, 2019).

Positions count from the first letter of the chain named. Names may count otherwise.

For one series, the target named is bacILT7 24-223 (human, UniProt P59901 24-223, fluorescent label (Protein Labeling Kit RED-NHS)). Nature of the series: MST.
The series “cross-linking” deals with the molecule itself. Nature of the series: cross-linking.
The target of the next series is bacILT7 24-435 (human, UniProt P59901 24-435). As to the kind of experiment: SPR. A general note: In SPR one partner is held on a chip, and binding of the other changes the refractive index at the surface.
Sequence of bacILT7 24-435 (P59901 24-435): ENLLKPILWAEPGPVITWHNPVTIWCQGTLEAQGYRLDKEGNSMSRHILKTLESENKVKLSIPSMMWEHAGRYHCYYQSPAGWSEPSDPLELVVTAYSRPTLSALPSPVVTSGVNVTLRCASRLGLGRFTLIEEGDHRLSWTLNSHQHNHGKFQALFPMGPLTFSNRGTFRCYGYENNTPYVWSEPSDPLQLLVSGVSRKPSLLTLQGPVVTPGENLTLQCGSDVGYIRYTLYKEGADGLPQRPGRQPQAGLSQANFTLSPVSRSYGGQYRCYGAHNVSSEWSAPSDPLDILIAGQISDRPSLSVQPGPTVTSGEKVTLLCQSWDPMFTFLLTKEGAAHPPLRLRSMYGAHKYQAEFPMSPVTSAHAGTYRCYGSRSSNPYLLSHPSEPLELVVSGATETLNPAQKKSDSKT

Sequence of bacILT7 24-223 (P59901 24-223): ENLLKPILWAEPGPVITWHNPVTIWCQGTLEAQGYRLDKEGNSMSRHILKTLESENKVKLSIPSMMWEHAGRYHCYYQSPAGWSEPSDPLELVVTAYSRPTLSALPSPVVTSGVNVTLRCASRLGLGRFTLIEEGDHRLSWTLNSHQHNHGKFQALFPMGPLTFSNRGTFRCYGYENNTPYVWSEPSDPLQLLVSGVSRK

B1: BST2 ectodomain (residues 47 to 159) WT (domain or fragment, human, UniProt Q10589 47-159, looked up)
chain: KANSEACRDGLRAVMECRNVTHLLQQELTEAQKGFQDVEAQAATCNHTVMALMASLDAEKAQGQKKVEELEGEITTLNHKLQDASAEVERLRRENQVLSVRIADKKYYPSSQD
For B1, the affinity with bacILT7 24-223, expressed as Kd, was 2.45 ± 0.3 µM.

B2: BST2 ectodomain (residues 47 to 159) L127C (domain or fragment, human, UniProt Q10589 47-159, looked up)
chain: B1 chain with L81C
Turning to B2, in the series with bacILT7 24-223, binding was characterised by a dissociation constant (Kd) of 6.45 ± 1.2 µM.

B3: BST2 ectodomain (residues 47 to 159) R136A (domain or fragment, human, UniProt Q10589 47-159, looked up)
chain: B1 chain with R90A
B3: in “cross-linking”, the stoichiometry N (in general, a count of units in the complex or per binding partner) came out at 2.

B4: BST2 ectodomain (residues 47 to 159) D129A (domain or fragment, human, UniProt Q10589 47-159, looked up)
chain: B1 chain with D83A
On to B4, for which the “stoichiometry N” value in “cross-linking” worked out at 2.

B5: BST2 ectodomain (residues 47 to 159) T90P (domain or fragment, human, UniProt Q10589 47-159, looked up)
chain: B1 chain with T44P
For the molecule B5, binding with bacILT7 24-223 was characterised by a dissociation constant (Kd) of 4.49 ± 0.9 µM.

B6: BST2 ectodomain (residues 47 to 159) L70D (domain or fragment, human, UniProt Q10589 47-159, looked up)
chain: B1 chain with L24D
As to B6, the Kd (commonly the concentration at which binding is half-saturated) with bacILT7 24-223 was 5.55 ± 1 µM.

B7: BST2 ectodomain (residues 47 to 159) Q87H (domain or fragment, human, UniProt Q10589 47-159, looked up)
chain: B1 chain with Q41H
As for B7, the Kd with bacILT7 24-223 stood at 5.06 ± 1.1 µM.

B8: GST-BST2 (80-147) (domain or fragment, human, UniProt Q10589 80-147, looked up)
chain: GFQDVEAQAATCNHTVMALMASLDAEKAQGQKKVEELEGEITTLNHKLQDASAEVERLRRENQVLSVR
For B8, in the series with bacILT7 24-435, binding was characterised by a dissociation constant (Kd) of 2.62 µM; the koff (usually a measure of how fast the partners let go of each other) worked out at 0.00238 s⁻¹; the on-rate constant (kon) (in general, a measure of how fast the partners come together) was 908 M⁻¹ s⁻¹.
